Measured values reported in US20180371093A1 (Novartis, published 2018).
Numbering of substitutions follows the chain as printed.

B1: BAP049-hum02 (antibody, human IgG4 S228P, kappa, V domains shown)
VH: EVQLVQSGAEVKKPGESLRISCKGSGYTFTTYWMHWVRQATGQGLEWMGNIYPGTGGSNFDEKFKNRVTITADKSTSTAYMELSSLRSEDTAVYYCTRWTTGTGAYWGQGTTVTVSS
VL: DIQMTQSPSSLSASVGDRVTITCKSSQSLLDSGNQKNFLTWYQQKPGQAPRLLIYWASTRESGIPPRFSGSGYGTDFTLTINNIESEDAAYYFCQNDYSYPYTFGQGTKVEIKR
notes: also called clone 2
B2: BAP049-hum12 (antibody, human IgG4 S228P, kappa, V domains shown)
VH: B1 VH
VL: DIQMTQSPSSLSASVGDRVTITCKSSQSLLDSGNQKNFLTWYLQKPGQSPQLLIYWASTRESGVPSRFSGSGSGTDFTFTISSLEAEDAATYYCQNDYSYPYTFGQGTKVEIKR
notes: also called clone 12
B3: Chi mAb (Tyr) (antibody, human IgG4 S228P, kappa, V domains shown)
VH: QVQLQQSGSELVRPGASVKLSCKASGYTFTTYWMHWVRQRPGQGLEWIGNIYPGTGGSNFDEKFKNRTSLTVDTSSTTAYMHLASLTSEDSAVYYCTRWTTGTGAYWGQGTTVTVSS
VL: DIVMTQSPSSLTVTAGEKVTMSCKSSQSLLDSGNQKNFLTWYQQKPGQPPKLLIFWASTRESGVPDRFTGSGSVTDFTLTISSVQAEDLAVYYCQNDYSYPYTFGQGTKVEIKR
notes: also called BAP049-chi-Y; Chi (Tyr)
B4: Mu mAb (antibody, V domains shown)
VH: B3 VH with T112L, S117A
VL: DIVMTQSPSSLTVTAGEKVTMSCKSSQSLLDSGNQKNFLTWYQQKPGQPPKLLIFWASTRESGVPDRFTGSGSVTDFTLTISSVQAEDLAVYYCQNDYSYPCTFGGGTKLEIK
notes: Unlabelled when its concentration is varied; also called murine anti-PD-1 mAb BAP049; Mu mAb control
B5: BAP049-Clone-E (antibody, human IgG4 S228P, kappa)
heavy: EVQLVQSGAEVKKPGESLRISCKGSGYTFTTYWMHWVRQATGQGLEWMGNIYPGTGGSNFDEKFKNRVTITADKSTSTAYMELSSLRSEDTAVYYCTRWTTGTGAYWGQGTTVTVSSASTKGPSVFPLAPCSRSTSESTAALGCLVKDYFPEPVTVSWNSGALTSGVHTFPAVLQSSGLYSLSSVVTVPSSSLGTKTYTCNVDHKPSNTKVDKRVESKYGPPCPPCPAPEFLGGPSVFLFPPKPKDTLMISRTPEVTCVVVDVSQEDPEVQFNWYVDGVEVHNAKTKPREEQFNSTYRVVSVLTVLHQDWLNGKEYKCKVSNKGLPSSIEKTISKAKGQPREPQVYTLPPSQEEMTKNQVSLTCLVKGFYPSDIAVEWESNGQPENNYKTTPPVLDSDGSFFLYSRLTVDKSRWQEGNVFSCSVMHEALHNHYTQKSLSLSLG
light: EIVLTQSPATLSLSPGERATLSCKSSQSLLDSGNQKNFLTWYQQKPGQAPRLLIYWASTRESGVPSRFSGSGSGTDFTFTISSLEAEDAATYYCQNDYSYPYTFGQGTKVEIKRTVAAPSVFIFPPSDEQLKSGTASVVCLLNNFYPREAKVQWKVDNALQSGNSQESVTEQDSKDSTYSLSSTLTLSKADYEKHKVYACEVTHQGLSSPVTKSFNRGEC
B6: BAP049-hum10 (antibody, human IgG4 S228P, kappa)
heavy: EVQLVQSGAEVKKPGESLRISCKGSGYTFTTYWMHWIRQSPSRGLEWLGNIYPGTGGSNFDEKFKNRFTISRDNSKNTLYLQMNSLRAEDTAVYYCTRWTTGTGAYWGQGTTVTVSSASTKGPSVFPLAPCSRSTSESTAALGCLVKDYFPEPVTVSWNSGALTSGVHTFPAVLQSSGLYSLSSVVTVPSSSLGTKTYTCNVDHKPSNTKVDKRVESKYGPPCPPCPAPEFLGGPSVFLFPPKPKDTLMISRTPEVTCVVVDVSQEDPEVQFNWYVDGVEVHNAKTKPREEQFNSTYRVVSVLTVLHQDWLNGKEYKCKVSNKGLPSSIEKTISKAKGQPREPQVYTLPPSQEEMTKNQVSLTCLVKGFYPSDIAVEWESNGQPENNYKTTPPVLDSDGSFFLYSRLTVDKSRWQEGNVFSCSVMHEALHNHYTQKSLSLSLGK
light: B5 light
notes: Humanized mAb
B7: BAP049-hum11 (antibody, human IgG4 S228P, kappa)
heavy: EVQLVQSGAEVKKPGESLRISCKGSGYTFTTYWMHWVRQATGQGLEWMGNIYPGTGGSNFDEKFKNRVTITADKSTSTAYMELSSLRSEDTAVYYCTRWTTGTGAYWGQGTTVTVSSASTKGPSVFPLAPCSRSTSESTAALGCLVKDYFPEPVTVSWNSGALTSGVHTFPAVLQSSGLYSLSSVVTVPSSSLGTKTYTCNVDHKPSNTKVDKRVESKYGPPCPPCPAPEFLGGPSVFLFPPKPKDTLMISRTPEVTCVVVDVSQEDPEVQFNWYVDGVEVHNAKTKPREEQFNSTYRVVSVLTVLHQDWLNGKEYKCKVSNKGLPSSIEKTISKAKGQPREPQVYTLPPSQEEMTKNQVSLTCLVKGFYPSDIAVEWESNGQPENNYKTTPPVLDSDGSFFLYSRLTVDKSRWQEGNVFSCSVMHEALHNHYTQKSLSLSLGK
light: B5 light
notes: Humanized mAb
B8: BAP049-hum15 (antibody, human IgG4 S228P, kappa)
heavy chain: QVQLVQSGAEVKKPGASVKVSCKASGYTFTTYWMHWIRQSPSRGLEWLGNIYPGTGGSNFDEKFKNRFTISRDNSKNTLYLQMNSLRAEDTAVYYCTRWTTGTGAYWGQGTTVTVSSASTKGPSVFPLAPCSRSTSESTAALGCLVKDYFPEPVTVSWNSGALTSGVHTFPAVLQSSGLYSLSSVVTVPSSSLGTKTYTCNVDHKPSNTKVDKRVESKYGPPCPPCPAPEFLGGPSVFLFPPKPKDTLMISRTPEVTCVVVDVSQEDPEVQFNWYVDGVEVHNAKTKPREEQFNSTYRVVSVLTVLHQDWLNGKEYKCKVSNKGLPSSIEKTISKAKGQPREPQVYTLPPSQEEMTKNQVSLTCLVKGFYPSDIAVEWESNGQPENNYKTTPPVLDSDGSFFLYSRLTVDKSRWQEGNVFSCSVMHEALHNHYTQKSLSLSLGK
light chain: B5 light with A9D, T10F, L11Q, L13V, S14T, G16K, R18K, A19V, L21I, S22T
notes: also called clone 15
B9: BAP049-hum04 (antibody, human IgG4 S228P, kappa, V domains shown)
VH: EVQLVQSGAEVKKPGESLRISCKGSGYTFTTYWMHWIRQSPSRGLEWLGNIYPGTGGSNFDEKFKNRFTISRDNSKNTLYLQMNSLRAEDTAVYYCTRWTTGTGAYWGQGTTVTVSS
VL: EIVLTQSPATLSLSPGERATLSCKSSQSLLDSGNQKNFLTWYQQKPGKAPKLLIYWASTRESGVPSRFSGSGSGTDFTFTISSLQPEDIATYYCQNDYSYPYTFGQGTKVEIKR
notes: also called clone 4
B10: BAP049-hum01 (antibody, human IgG4 S228P, kappa, V domains shown)
VH: B1 VH
VL: B9 VL with K48Q, K51R, D76E, F79L, E87D, I89F
notes: Humanized mAb
B11: BAP049-hum14 (antibody, human IgG4 S228P, kappa)
heavy chain: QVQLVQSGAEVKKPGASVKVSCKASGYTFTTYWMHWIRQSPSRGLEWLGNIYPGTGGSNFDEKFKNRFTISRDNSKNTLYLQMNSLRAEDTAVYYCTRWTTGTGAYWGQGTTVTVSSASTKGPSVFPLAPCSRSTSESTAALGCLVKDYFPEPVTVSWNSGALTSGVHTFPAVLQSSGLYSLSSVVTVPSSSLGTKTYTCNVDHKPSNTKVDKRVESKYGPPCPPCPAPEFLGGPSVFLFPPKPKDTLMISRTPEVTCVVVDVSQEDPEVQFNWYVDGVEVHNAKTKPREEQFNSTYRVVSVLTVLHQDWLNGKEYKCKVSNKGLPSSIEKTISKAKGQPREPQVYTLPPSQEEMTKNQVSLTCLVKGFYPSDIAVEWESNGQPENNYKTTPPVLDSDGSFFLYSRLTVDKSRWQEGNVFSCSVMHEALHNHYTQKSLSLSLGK
light chain: B5 light
notes: also called clone 14
B12: BAP049-hum09 (antibody, human IgG4 S228P, kappa)
heavy: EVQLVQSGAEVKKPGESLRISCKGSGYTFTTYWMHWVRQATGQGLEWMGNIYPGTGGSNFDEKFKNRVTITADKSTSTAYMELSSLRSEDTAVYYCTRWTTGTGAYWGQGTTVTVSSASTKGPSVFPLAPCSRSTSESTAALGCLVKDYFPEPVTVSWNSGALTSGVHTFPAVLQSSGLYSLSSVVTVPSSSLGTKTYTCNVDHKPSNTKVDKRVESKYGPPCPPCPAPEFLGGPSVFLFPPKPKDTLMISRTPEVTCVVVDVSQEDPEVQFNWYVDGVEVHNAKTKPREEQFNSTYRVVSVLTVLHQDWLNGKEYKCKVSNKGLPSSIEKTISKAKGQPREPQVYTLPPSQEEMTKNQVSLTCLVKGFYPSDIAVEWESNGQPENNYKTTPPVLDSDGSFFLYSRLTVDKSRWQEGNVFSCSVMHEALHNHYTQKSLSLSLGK
light: B5 light with A9D, T10F, L11Q, L13V, S14T, G16K, R18K, A19V, L21I, S22T
notes: Humanized mAb
B13: BAP049-hum05 (antibody, human IgG4 S228P, kappa, V domains shown)
VH: B1 VH
VL: B9 VL
notes: Humanized mAb
B14: BAP049-hum06 (antibody, human IgG4 S228P, kappa)
heavy chain: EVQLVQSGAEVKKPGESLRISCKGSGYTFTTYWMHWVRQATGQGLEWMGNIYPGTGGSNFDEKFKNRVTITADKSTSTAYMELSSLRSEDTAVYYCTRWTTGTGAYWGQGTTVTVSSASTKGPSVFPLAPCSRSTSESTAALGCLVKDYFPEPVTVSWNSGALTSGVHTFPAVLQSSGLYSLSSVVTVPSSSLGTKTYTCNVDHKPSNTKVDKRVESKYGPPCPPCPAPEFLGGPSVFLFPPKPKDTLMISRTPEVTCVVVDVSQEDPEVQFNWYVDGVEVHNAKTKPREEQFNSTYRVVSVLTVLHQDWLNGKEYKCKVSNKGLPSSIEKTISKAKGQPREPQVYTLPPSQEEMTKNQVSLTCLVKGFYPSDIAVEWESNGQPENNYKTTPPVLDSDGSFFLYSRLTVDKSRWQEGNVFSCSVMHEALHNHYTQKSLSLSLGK
light chain: DIVMTQTPLSLPVTPGEPASISCKSSQSLLDSGNQKNFLTWYQQKPGQAPRLLIYWASTRESGVPSRFSGSGSGTDFTFTISSLEAEDAATYYCQNDYSYPYTFGQGTKVEIKRTVAAPSVFIFPPSDEQLKSGTASVVCLLNNFYPREAKVQWKVDNALQSGNSQESVTEQDSKDSTYSLSSTLTLSKADYEKHKVYACEVTHQGLSSPVTKSFNRGEC
notes: also called clone 6
B15: BAP049-hum07 (antibody, human IgG4 S228P, kappa)
heavy chain: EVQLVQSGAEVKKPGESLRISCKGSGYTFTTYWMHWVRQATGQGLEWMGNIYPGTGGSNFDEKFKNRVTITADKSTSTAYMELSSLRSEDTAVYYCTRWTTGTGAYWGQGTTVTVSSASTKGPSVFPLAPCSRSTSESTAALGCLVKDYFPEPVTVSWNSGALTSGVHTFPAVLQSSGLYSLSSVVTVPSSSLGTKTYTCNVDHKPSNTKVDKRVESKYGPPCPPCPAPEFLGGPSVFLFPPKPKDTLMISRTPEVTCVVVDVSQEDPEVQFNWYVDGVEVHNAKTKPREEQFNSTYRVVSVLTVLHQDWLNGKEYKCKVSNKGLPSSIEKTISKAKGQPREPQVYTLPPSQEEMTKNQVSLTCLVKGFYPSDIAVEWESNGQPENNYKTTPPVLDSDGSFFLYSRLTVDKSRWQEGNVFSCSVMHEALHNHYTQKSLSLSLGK
light chain: B5 light with Q48K, R51K
notes: also called clone 7
B16: BAP049-hum08 (antibody, human IgG4 S228P, kappa)
heavy: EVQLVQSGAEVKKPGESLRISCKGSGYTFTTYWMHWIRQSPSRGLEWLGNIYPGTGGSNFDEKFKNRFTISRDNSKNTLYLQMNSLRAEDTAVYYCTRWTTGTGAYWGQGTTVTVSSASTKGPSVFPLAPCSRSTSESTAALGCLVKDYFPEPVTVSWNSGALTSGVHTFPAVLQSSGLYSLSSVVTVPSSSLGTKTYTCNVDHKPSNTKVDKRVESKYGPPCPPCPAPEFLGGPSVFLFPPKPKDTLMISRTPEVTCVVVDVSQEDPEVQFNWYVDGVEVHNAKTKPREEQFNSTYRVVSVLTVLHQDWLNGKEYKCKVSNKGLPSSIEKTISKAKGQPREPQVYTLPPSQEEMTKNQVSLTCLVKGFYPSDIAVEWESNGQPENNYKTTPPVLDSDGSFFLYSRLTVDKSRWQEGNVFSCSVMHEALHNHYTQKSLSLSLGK
light: B5 light with A9D, T10F, L11Q, L13V, S14T, G16K, R18K, A19V, L21I, S22T
notes: Humanized mAb
B17: BAP049-hum16 (antibody, human IgG4 S228P, kappa, V domains shown)
VH: B9 VH with I37V, S40A, S42G, R43Q, L48M
VL: EIVLTQSPDFQSVTPKEKVTITCKSSQSLLDSGNQKNFLTWYQQKPGQAPRLLIYWASTRESGVPSRFSGSGSGTDFTFTISSLEAEDAATYYCQNDYSYPYTFGQGTKVEIKR
notes: also called clone 16
B18: BAP049-hum03 (antibody, human IgG4 S228P, kappa, V domains shown)
VH: B9 VH
VL: B1 VL
notes: also called clone 3
B19: BAP049-hum13 (antibody, human IgG4 S228P, kappa)
heavy chain: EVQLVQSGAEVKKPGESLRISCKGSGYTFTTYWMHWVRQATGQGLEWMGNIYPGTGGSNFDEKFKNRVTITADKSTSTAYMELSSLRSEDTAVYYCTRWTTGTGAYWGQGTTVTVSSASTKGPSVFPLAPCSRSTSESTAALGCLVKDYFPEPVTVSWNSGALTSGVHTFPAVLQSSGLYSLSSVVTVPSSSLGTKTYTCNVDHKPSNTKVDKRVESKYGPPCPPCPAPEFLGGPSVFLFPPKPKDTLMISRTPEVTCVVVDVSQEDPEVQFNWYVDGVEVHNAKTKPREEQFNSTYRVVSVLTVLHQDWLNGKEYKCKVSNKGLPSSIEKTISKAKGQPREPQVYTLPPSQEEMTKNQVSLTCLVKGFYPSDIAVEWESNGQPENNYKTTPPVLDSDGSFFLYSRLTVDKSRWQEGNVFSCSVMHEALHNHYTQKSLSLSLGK
light chain: B14 light chain with I2V, T7S, P15L, E17Q, Q48K, R51K
notes: also called clone 13

How the values were obtained:
[1] = molecular target: T1, Programmed Death 1 (PD-1) (UniProt Q15116 25-167, limits assumed); assay: rank in competition binding against labelled murine mAb BAP049, 2nd experiment
T1 sequence (Q15116 25-167 limits assumed): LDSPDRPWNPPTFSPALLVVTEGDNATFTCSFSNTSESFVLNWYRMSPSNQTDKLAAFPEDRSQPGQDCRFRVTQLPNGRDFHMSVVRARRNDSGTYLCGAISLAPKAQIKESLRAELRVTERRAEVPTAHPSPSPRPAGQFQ

[2] = molecular target: T1, Programmed Death 1 (PD-1); assay: rank among the 16 humanized clones by FACS binding data
[3] = molecular target: T1, Programmed Death 1 (PD-1); assay: rank in competition binding against labelled murine mAb BAP049, 1st experiment
[4] = molecular target: T1, Programmed Death 1 (PD-1); assay: FACS ligand blocking: binding of PD-L1-Ig to PD-1 at increasing mAb concentration (legend paragraph 212 names 'PD-L1-Ig and PD-L2-Ig' for FIG. 8A)
[5] = molecular target: T1, Programmed Death 1 (PD-1); assay: cell-based or functional assay

Row | Binder | Competition Binding 2nd exp. (rank) [1] [rank] | Ranking FACS data [2] [rank] | Competition Binding 1st exp. (rank) [3] [rank] | IC50 (read off the curve) [4] [µg/mL] | ex vivo EC50 for PD-1 blockade (IL-2 change in SEB ex-vivo assay) [5] [µg/mL]
1 | B1 | 2 | 6 | 3 |  | 
2 | B2 | 16 | 3 | 8 |  | 
3 | B3 |  |  |  | ~0.9 | 
4 | B4 |  |  |  | ~0.7 | 
5 | B5 |  |  |  |  | 0.42
6 | B6 | > 4 | 7 | 6 | ~1 | 
7 | B7 | > 4 | 6 | 4 |  | 
8 | B8 | 15 | 6 | 7 |  | 
9 | B9 | 15 | 14 | 15 |  | 
10 | B10 | 2 | 2 | 7 | ~1 | 
11 | B11 | 15 | 16 | 7 |  | 
12 | B12 | 4 | 7 | 2 |  | 
13 | B13 | > 4 | 5 | 5 | ~1 | 
14 | B14 | 3 | 1 | 7 |  | 
15 | B15 | > 4 | 4 | 7 |  | 
16 | B16 | 4 | 7 | 7 |  | 
17 | B17 | 15 | 15 | 16 |  | 
18 | B18 | 14 | 7 | 8 |  | 
19 | B19 | 1 | 6 | 1 |  | 
